Reference: patent US20040072240A1
Read-outs that look alike come from different tables or passages of the source.

Experiments:
[1] = biological target: HLA A2.1 molecule (human); test: T2 cells, flow cytometry; P1Y variant against its natural peptide
[2] = biological target: HLA A2.1 molecule (human); test: T2 cells, flow cytometry (BB7.2); complex dissociation
[3] = biological target: HLA A2.1 molecule (human); test: T2 cells, flow cytometry (BB7.2); reference HIVpol 589
[4] = biological target: HLA A2.1 molecule (human); test: T2 cells, flow cytometry (BB7.2); reference I9V
[5] = remark: other sources report otherwise

With YMLGTHTMEV (modifications not checked) [gp100 177Y1] the DC50 Y1-DC50 WT [1] was 2 h and the RA WT/RA Y1 [1] was 0.6.

Work on FLFWLMDTYV (modifications not checked) [mp 534] yielded a DC50 [2] greater than 6 h and an RA (relative affinity) [3] of 0.2.

In the case of YLPWHRLFLL (modifications not checked) [P1Y variant of Tyrosinase 207], the DC50 Y1-DC50 WT [1] is reported as greater than 4 h and the RA WT/RA Y1 [1] is reported as greater than 6.4.

Work on KLTGDENFTI (modifications not checked) [Tyrosinase 224] yielded a DC50 [2] of less than 2 h and an RA (relative affinity) [3] greater than 50.

YLYRYGSFSV (modifications not checked) [gp100 476Y1] showed a DC50 Y1-DC50 WT [1] of 2 h and an RA WT/RA Y1 [1] of 4.2.

With LLGCAANWIL (modifications not checked) [HBVpol 765] the DC50 [2] was 4 h and the RA (relative affinity) [3] was 2.

YLGTHTMEV (modifications not checked) [P1Y variant of gp100 178] showed a DC50 Y1-DC50 WT [1] of 2 h and an RA WT/RA Y1 [1] of 0.8.

PLQPEQLQV (modifications not checked) [HER-2/neu 391] was tested, and the DC50 [2] was 2 h and the RA (relative affinity) [3] was greater than 70.

For DLQVNSLQTV (modifications not checked) [mhp 988], the DC50 [2] was less than 2 h and the RA (relative affinity) [3] was 28.6.

In the case of ALIHHNTHL (modifications not checked) [HER-2/neu 466], the DC50 [2] is reported as 2 h.

In the case of FLSTLVHGV (modifications not checked) [mp 876], the DC50 [2] is reported as greater than 6 h and the RA (relative affinity) [3] is reported as 1.2.

Work on ALCRWGLLL (modifications not checked) [HER-2/neu 5] yielded a DC50 [2] greater than 8 h.

For YLTGDENFTI (modifications not checked) [P1Y variant of Tyrosinase 224], the DC50 Y1-DC50 WT [1] was greater than 2 h and the RA WT/RA Y1 [1] was greater than 5.1.

With MLLAVLYCL (modifications not checked) [Tyrosinase 1] the RA (relative affinity) [3] was greater than 60.

With LLDTGADDTV (modifications not checked) [pol79] the RA (relative affinity) [4] was 10 and the DC50 [2] was less than 2 h.

With YLLVVVLGV (modifications not checked) [HER-2/neu 661Y1] the DC50 Y1-DC50 WT [1] was 2 h and the RA WT/RA Y1 [1] was greater than 1.5.

For YLCRWGLLL (modifications not checked) [HER-2/neu 5Y1], the DC50 Y1-DC50 WT [1] was 0 h and the RA WT/RA Y1 [1] was 1.1.

KLTPLCVSL (modifications not checked) [K9L] was tested, and the RA (relative affinity) [4] was 1.35 and the DC50 [2] was greater than 6 h.

YLTVILGVL (modifications not checked) [P1Y variant of Mart-1 32] was tested, and the DC50 Y1-DC50 WT [1] was 2 h and the RA WT/RA Y1 [1] was 16.2.

RLFFYRKSV (modifications not checked) [mhp 572] gave a DC50 [2] of less than 2 h and an RA (relative affinity) [3] of 25.3.

In the case of SLADTNSLAV (modifications not checked) [gp100 570], the RA (relative affinity) [3] is reported as 1.

ILLVVVLGV (modifications not checked) [HER-2/neu 661] showed an RA (relative affinity) [3] greater than 60.

With ILAKFLHWL (modifications not checked) [mhp 540] the DC50 [2] was greater than 6 h and the RA (relative affinity) [3] was 0.3.

Binder QLLRSFFHFL (modifications not checked) [mp 545] has a DC50 [2] greater than 6 h and an RA (relative affinity) [3] of 1.8.

YLVKSPNHV (modifications not checked) [P1Y variant of HER-2/neu 851] gave a DC50 Y1-DC50 WT [1] of 2 h and an RA WT/RA Y1 [1] of 3.

YLIHHNTHL (modifications not checked) [HER-2/neu 466Y1] gave a DC50 [2] of 6 h, an RA (relative affinity) [3] of 1.4 and a DC50 Y1-DC50 WT [1] greater than 4 h. It also gave an RA WT/RA Y1 [1] of 3.3.

With VMAGVGSPYV (modifications not checked) [HER-2/neu 773] the DC50 [2] was 6 h and the RA (relative affinity) [3] was 1.7.

In the case of YLQVNSLQTV (modifications not checked) [mhp 988Y1], the DC50 [2] is reported as greater than 6 h and the RA (relative affinity) [3] is reported as 2.1.

YLLAVLYCL (modifications not checked) [P1Y variant of Tyrosinase 1] showed a DC50 Y1-DC50 WT [1] greater than 2 h and an RA WT/RA Y1 [1] greater than 3.7.

FLPWHRLFLL (modifications not checked) [Tyrosinase 207] showed a DC50 [2] of 2 h and an RA (relative affinity) [3] greater than 50.

Work on AMLGTHTMEV (modifications not checked) [gp100 177] yielded a DC50 [2] greater than 6 h and an RA (relative affinity) [3] of 0.5.

YLMPYGCLL (modifications not checked) [P1Y variant of HER-2/neu 799] showed a DC50 Y1-DC50 WT [1] greater than 2 h and an RA WT/RA Y1 [1] of 3.9.

Work on HLYQGCQVV (modifications not checked) [HER-2/neu 48] yielded a DC50 [2] greater than 8 h and an RA (relative affinity) [3] of 1.7.

In the case of YLYQGCQVV (modifications not checked) [P1Y variant of HER-2/neu 48], the DC50 Y1-DC50 WT [1] is reported as 0 h and the RA WT/RA Y1 [1] is reported as 3.

YLQPEQLQV (modifications not checked) [HER-2/neu 391Y1] was tested, and the DC50 [2] was 8 h, the RA (relative affinity) [3] was 1.3 and the DC50 Y1-DC50 WT [1] was greater than 6 h. The RA WT/RA Y1 [1] was 55.5.

In the case of ELVSEFSRM (modifications not checked) [HER-2/neu 971], the DC50 [2] is reported as 2 h and the RA (relative affinity) [3] is reported as greater than 70.

In the case of YLDGTATLRL (modifications not checked) [gp100 457Y1], the DC50 Y1-DC50 WT [1] is reported as greater than 2 h and the RA WT/RA Y1 [1] is reported as 2.3.

Work on YLEEITGYL (modifications not checked) [HER-2/neu 402Y1] yielded a DC50 [2] of 4 h, an RA (relative affinity) [3] of 3.7 and a DC50 Y1-DC50 WT [1] greater than 2 h. It also gave an RA WT/RA Y1 [1] of 5.2.

YLFFYRKSV (modifications not checked) [mhp 572Y1] was tested, and the DC50 [2] was 5 h and the RA (relative affinity) [3] was 2.2.

Work on YLVSEFSRM (modifications not checked) [P1Y variant of HER-2/neu 971] yielded a DC50 Y1-DC50 WT [1] of 2 h and an RA WT/RA Y1 [1] of 11.6.

Binder SLFDFFHFL (modifications not checked) [mp 797] has a DC50 [2] greater than 6 h and an RA (relative affinity) [3] of 1.5.

With VLYRYGSFSV (modifications not checked) [gp100 476] the DC50 [2] was 6 h and the RA (relative affinity) [3] was 10.

Binder MLGTHTMEV (modifications not checked) [gp100 178] has an RA (relative affinity) [3] of 0.3.

In the case of ILATFLAWL (modifications not checked) [mp 530], the DC50 [2] is reported as greater than 6 h and the RA (relative affinity) [3] is reported as 0.8.

For VLVKSPNHV (modifications not checked) [HER-2/neu 851], the DC50 [2] was 4 h and the RA (relative affinity) [3] was 24.

Binder LLDGTATLRL (modifications not checked) [gp100 457] has an RA (relative affinity) [3] of 1.6.

YIFGSLAFL (modifications not checked) [HER-2/neu 369Y1] was tested, and the DC50 Y1-DC50 WT [1] was greater than 2 h and the RA WT/RA Y1 [1] was 3.9.

In the case of TLEEITGYL (modifications not checked) [HER-2/neu 402], the DC50 [2] is reported as less than 2 h and the RA (relative affinity) [3] is reported as 19.

For YMAGVGSPYV (modifications not checked) [P1Y variant of HER-2/neu 773], the DC50 Y1-DC50 WT [1] was 2 h and the RA WT/RA Y1 [1] was 2.

PLTSIISAV (modifications not checked) [HER-2/neu 650] gave a DC50 [2] of less than 2 h and an RA (relative affinity) [3] of 1.4.

Binder ILTVILGVL (modifications not checked) [mart-1 32] has a DC50 [2] of 4 h and an RA (relative affinity) [3] of 21.1.

YLADTNSLAV (modifications not checked) [gp100 570Y1] was tested, and the DC50 Y1-DC50 WT [1] was greater than 2 h and the RA WT/RA Y1 [1] was 3.4.

PLEEELPRL (modifications not checked) [HBVpol 594] showed a DC50 [2, 5] of less than 2 h and an RA (relative affinity) [3, 5] of 4.2.

In the case of YLVPQQGFFC (modifications not checked) [HER-2/neu 1023], the DC50 [2] is reported as 4 h and the RA (relative affinity) [3] is reported as 19.6.

QLMPYGCLL (modifications not checked) [HER-2/neu 799] was tested, and the RA (relative affinity) [3] was 1.
